Results: patent US20090281042A1 (priority 2005, published 2009)
Read-outs that look alike come from different tables or passages of the source. Ends that are not written are not given here.

Columns and labels:
HCV NS3 protease [1] = target: T1, HCV NS3 protease (Hepatitis C virus genotype 1b, UniProt P26663); conditions: mean ± S.D., cited from earlier work
T1 construct: In the case of HCV NS3 protease the site is NS5A/B

HCV NS3 protease [2] = target: T1, HCV NS3 protease; conditions: cited from earlier work
E. coli lysate = assay type: biochemical; conditions: FIG. 5
HRV 3C protease = HRV 3C protease (Human rhinovirus 16, UniProt Q82122); assay type: biochemical, HRV 16
SARS 3CL protease = SARS 3CL protease (Severe acute respiratory syndrome coronavirus, UniProt P0C6X7)
[3] = Table 7, NS3 + Pep4A, modified decamer peptides vs wild type DEMEECASHL
[4] = Table 7, NS3 alone, modified decamer peptides vs wild type DEMEECASHL
[5] = NS3 + Pep4A, P6 and P1′-modified NS4A/NS4B decamer peptides
[6] = NS3 alone, P6 and P1′-modified NS4A/NS4B decamer peptides

T1 sequence (P26663 1027-1208, other chains not shown): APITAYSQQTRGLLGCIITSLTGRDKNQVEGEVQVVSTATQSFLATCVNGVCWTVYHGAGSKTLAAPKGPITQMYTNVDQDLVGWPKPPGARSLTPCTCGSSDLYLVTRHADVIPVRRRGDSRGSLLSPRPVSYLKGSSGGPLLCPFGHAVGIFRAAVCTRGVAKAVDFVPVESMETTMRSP

Compound: O=C(O)CN(CCN(CC(=O)O)CC(=O)O)CC(=O)O [EDTA]
- effect of protease inhibitor on cleavage of Pep1 (HeLa lysate): partially inhibited

Compound: O=C(O)CN(CCOCCOCCN(CC(=O)O)CC(=O)O)CC(=O)O [EGTA]
- effect of protease inhibitor on cleavage of Pep1 (HeLa lysate; Pep1 as substrate): partially inhibited

Compound: O=S(=O)(F)Cc1ccccc1 [PMSF]
- effect of protease inhibitor on cleavage of Pep1 (HeLa lysate; Pep1 as substrate): relative insensitivity

Compound: AEMEECASHL
- Km (HCV NS3 protease [1]; [3]): 55 ± 11 µM
- kcat (HCV NS3 protease [1]; [3]): 0.015 ± 0.001 s⁻¹
- Km (HCV NS3 protease [1]; [4]): 125 ± 28 µM
- kcat (HCV NS3 protease [1]; [4]): 0.00167 ± 0.00033 s⁻¹

Compound: Aprotinin
- effect of protease inhibitor on cleavage of Pep1 (HeLa lysate; Pep1 as substrate): relative insensitivity

Compound: BTLEFCSñSY [Pep B5s]
- Keat (HCV NS3 protease [2]; absence (−) of 150 mM Nacl): 23 min⁻¹
- Km (HCV NS3 protease [2]; absence (−) of 150 mM Nacl): 3.5 µM
- Keat (HCV NS3 protease [2]; presence (+) of 150 mM Nacl): 36 min⁻¹
- Km (HCV NS3 protease [2]; presence (+) of 150 mM Nacl): 27 µM

Compound: DAMEECASHL
- Km (HCV NS3 protease [1]; [3]): 143 ± 27 µM
- kcat (HCV NS3 protease [1]; [3]): 0.0455 ± 0.014 s⁻¹
- Km (HCV NS3 protease [1]; [4]): 569 ± 150 µM
- kcat (HCV NS3 protease [1]; [4]): 0.0143 ± 0.00767 s⁻¹

Compound: DEAEECASHL
- Km (HCV NS3 protease [1]; [3]): 124 ± 22 µM
- kcat (HCV NS3 protease [1]; [3]): 0.0355 ± 0.005 s⁻¹
- Km (HCV NS3 protease [1]; [4]): 409 ± 24 µM
- kcat (HCV NS3 protease [1]; [4]): 0.005 ± 0.00033 s⁻¹

Compound: DEMAECASHL
- Km (HCV NS3 protease [1]; [3]): 190 ± 35 µM
- kcat (HCV NS3 protease [1]; [3]): 0.0468 ± 0.011 s⁻¹
- Km (HCV NS3 protease [1]; [4]): 790 ± 205 µM
- kcat (HCV NS3 protease [1]; [4]): 0.0055 ± 0.001 s⁻¹

Compound: DEMEACASHL
- Km (HCV NS3 protease [1]; [3]): 148 ± 44 µM
- kcat (HCV NS3 protease [1]; [3]): 0.0432 ± 0.01 s⁻¹
- Km (HCV NS3 protease [1]; [4]): 171 ± 23 µM
- kcat (HCV NS3 protease [1]; [4]): 0.00433 ± 0.00017 s⁻¹

Compound: DEMEEAASHL
- kcat (HCV NS3 protease [1]; [3]): not cleaved
- kcat (HCV NS3 protease [1]; [4]): not cleaved

Compound: DEMEECAAHL
- Km (HCV NS3 protease [1]; [3]): 144 ± 5.6 µM
- kcat (HCV NS3 protease [1]; [3]): 0.0513 ± 0.0025 s⁻¹
- Km (HCV NS3 protease [1]; [4]): 191 ± 11 µM
- kcat (HCV NS3 protease [1]; [4]): 0.0112 ± 0.00067 s⁻¹

Compound: DEMEECASAL
- Km (HCV NS3 protease [1]; [3]): 130 ± 15 µM
- kcat (HCV NS3 protease [1]; [3]): 0.0602 ± 0.016 s⁻¹
- Km (HCV NS3 protease [1]; [4]): 231 ± 39 µM
- kcat (HCV NS3 protease [1]; [4]): 0.0142 ± 0.00267 s⁻¹

Compound: DEMEECASHA
- Km (HCV NS3 protease [1]; [3]): 219 ± 10 µM
- kcat (HCV NS3 protease [1]; [3]): 0.05 ± 0.0157 s⁻¹
- Km (HCV NS3 protease [1]; [4]): 260 ± 37 µM
- kcat (HCV NS3 protease [1]; [4]): 0.00967 ± 0.002 s⁻¹

Compound: DEMEECASHL
- Km (HCV NS3 protease [1]; [5]): 42.8 ± 4.1 µM
- kcat (HCV NS3 protease [1]; [5]): 0.0233 ± 0.0012 s⁻¹
- Km (HCV NS3 protease [1]; [6]): 105 ± 20 µM
- kcat (HCV NS3 protease [1]; [6]): 0.00433 ± 0.0005 s⁻¹
- Km (HCV NS3 protease [1]; [3]): 42.8 ± 4.1 µM
- kcat (HCV NS3 protease [1]; [3]): 0.0233 ± 0.0012 s⁻¹
- Km (HCV NS3 protease [1]; [4]): 105 ± 20 µM
- kcat (HCV NS3 protease [1]; [4]): 0.00433 ± 0.0005 s⁻¹

Compound: DEMEECASHL [NS4A/4Bs]
- Keat (HCV NS3 protease [2]; absence (−) of 150 mM Nacl): 4 min⁻¹
- Km (HCV NS3 protease [2]; absence (−) of 150 mM Nacl): 10 µM
- Keat (HCV NS3 protease [2]; presence (+) of 150 mM Nacl): 4 min⁻¹
- Km (HCV NS3 protease [2]; presence (+) of 150 mM Nacl): 500 µM

Compound: DEMEECFSHL
- Km (HCV NS3 protease [1]; [5]): 156 ± 54 µM
- kcat (HCV NS3 protease [1]; [5]): 0.00333 ± 0.00033 s⁻¹

Compound: DEMEECSSHL
- Km (HCV NS3 protease [1]; [5]): 246 ± 54 µM
- kcat (HCV NS3 protease [1]; [5]): 0.0277 ± 0.00367 s⁻¹
- Km (HCV NS3 protease [1]; [6]): 273 ± 21 µM
- kcat (HCV NS3 protease [1]; [6]): 0.00533 ± 0.00017 s⁻¹

Compound: EDVVaCSñSY [B14s(NS5A/B)]
- Keat (HCV NS3 protease [2]; absence (−) of 150 mM Nacl): 34 min⁻¹
- Km (HCV NS3 protease [2]; absence (−) of 150 mM Nacl): 4 µM
- Keat (HCV NS3 protease [2]; presence (+) of 150 mM Nacl): 47 min⁻¹
- Km (HCV NS3 protease [2]; presence (+) of 150 mM Nacl): 10 µM

Compound: EEMEECASHL
- Km (HCV NS3 protease [1]; [5]): 166 ± 15 µM
- kcat (HCV NS3 protease [1]; [5]): 0.0482 ± 0.00333 s⁻¹
- Km (HCV NS3 protease [1]; [6]): 254 ± 44 µM
- kcat (HCV NS3 protease [1]; [6]): 0.0107 ± 0.00067 s⁻¹

Compound: ENSVPCSñSY (not fully specified (C-terminus); printed as ENSVPCSñSY; also: code ñ has no stated meaning) [Pep B28s, substrate peptide for HCV NS3 protease based on selected cleavage site]
- Keat (HCV NS3 protease [2]; absence (−) of 150 mM Nacl): 4 min⁻¹
- Km (HCV NS3 protease [2]; absence (−) of 150 mM Nacl): 15 µM
- Keat (HCV NS3 protease [2]; presence (+) of 150 mM Nacl): 14.5 min⁻¹
- Km (HCV NS3 protease [2]; presence (+) of 150 mM Nacl): 56 µM

Compound: EQVVRCSñSY (not fully specified (C-terminus); printed as EQVVRCSñSY; also: code ñ has no stated meaning) [Pep B8s, substrate peptide for HCV NS3 protease based on selected cleavage site]
- Keat (HCV NS3 protease [2]; absence (−) of 150 mM Nacl): 3 min⁻¹
- Km (HCV NS3 protease [2]; absence (−) of 150 mM Nacl): 7 µM
- Keat (HCV NS3 protease [2]; presence (+) of 150 mM Nacl): 10.5 min⁻¹
- Km (HCV NS3 protease [2]; presence (+) of 150 mM Nacl): 21 µM

Compound: ERLVLCSñSY (not fully specified (C-terminus); printed as ERLVLCSñSY; also: code ñ has no stated meaning) [Pep B19s, substrate peptide for HCV NS3 protease based on selected cleavage site]
- Keat (HCV NS3 protease [2]; absence (−) of 150 mM Nacl): 30 min⁻¹
- Km (HCV NS3 protease [2]; absence (−) of 150 mM Nacl): 11 µM
- Keat (HCV NS3 protease [2]; presence (+) of 150 mM Nacl): 49 min⁻¹
- Km (HCV NS3 protease [2]; presence (+) of 150 mM Nacl): 12 µM

Compound: ERVVLCSñSY (not fully specified (C-terminus); printed as ERVVLCSñSY; also: code ñ has no stated meaning) [Pep B15s, substrate peptide for HCV NS3 protease based on selected cleavage site]
- Keat (HCV NS3 protease [2]; absence (−) of 150 mM Nacl): 30 min⁻¹
- Km (HCV NS3 protease [2]; absence (−) of 150 mM Nacl): 30 µM
- Keat (HCV NS3 protease [2]; presence (+) of 150 mM Nacl): 44.5 min⁻¹
- Km (HCV NS3 protease [2]; presence (+) of 150 mM Nacl): 13 µM

Compound: KEMEECASHL
- Km (HCV NS3 protease [1]; [5]): 449 ± 91 µM
- kcat (HCV NS3 protease [1]; [5]): 0.0447 ± 0.00033 s⁻¹
- Km (HCV NS3 protease [1]; [6]): 1050 ± 430 µM
- kcat (HCV NS3 protease [1]; [6]): 0.00433 ± 0.00167 s⁻¹

Compound: NEMEECASHL
- Km (HCV NS3 protease [1]; [5]): 188 ± 44 µM
- kcat (HCV NS3 protease [1]; [5]): 0.0483 ± 0.00767 s⁻¹
- Km (HCV NS3 protease [1]; [6]): 630 ± 62 µM
- kcat (HCV NS3 protease [1]; [6]): 0.00617 ± 0.00417 s⁻¹

Compound: Pep1: designed fluorescent (EDANS/DABCYL) 3C protease substrate based on multiple HRV 3C cleavage sites and bioinformatics, Table 14 (LEALFQGPDSQ; not fully specified)
- cleavage reaction with E. coli lysate (E. coli lysate): absence of any detectable cleavage reaction
- duration of linear kinetics (HRV 3C protease): at least 3 minutes
- effect of nasal wash on substrate cleavage by recombinant HRV 3C (HRV 3C protease): absence of effect
- lower limit of protease detection (HRV 3C protease): 0.5 to 1.0 nM
- specificity of substrate for cleavage with HRV 3C protease (HRV 3C protease): absolute specificity
- substrate cleavage compared to the native cleavage site (Ori 2) (HRV 3C protease): superior substrate cleavage
- substrate exhibiting the most rapid kinetics out of Pep 1-Pep 9 (HRV 3C protease): most rapid kinetics
- cleavage reaction with SARS 3CL lysate (SARS 3CL protease): absence of any detectable cleavage reaction
